# Source: paper PMC8537613
# Molecular target: NiV F clamp (Nipah virus (Malaysia strain)) (UniProt Q9IH63)
# Test: SEC
substance,measurement,value
NiV F clamp (from UniProt Q9IH63 27-483),stoichiometry N,3
